The text below walks through data of the supplement of paper PMC12764529.

± gives the half width of the 95% confidence interval.

A short description of series [1]: folding stability dG unfold (combined trypsin and chymotrypsin); higher = more stable. The procedure, abridged: (§1)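 K50 was inferred by Bayesian fitting of sequencing counts obtained after protease digestion of designed mini-proteins. Unfolding free energy was derived by comparison with a sequence-predicted unfolded-state K50 and a shared folded-state K50, for each protease or both combined. The mini-proteins were under 80 residues, had no cysteine, were carried in a PA-tagged cDNA display construct, and were kept only if AlphaFold2 dimer inter-PAE exceeded 15.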

A short description of series [2]: folding stability dG unfold from trypsin proteolysis; higher = more stable. The method, boiled down:
as §1

Series [3] in a line: folding stability dG unfold from chymotrypsin proteolysis; higher = more stable. The procedure, abridged:
as §1

On to “SAGGSAGGKPKIIEEKELEFTRKDGKKVKIKLVKNEDGKVFAFNKDTGKVITLPLDELKALLKSSAGGSAGG [r6_579_TrROS_Hall]”, for which the results for the “folding stability dG unfold” value in series [1], in series [2] and in series [3] were 2.27 ± 0.054 kcal/mol, 1.87 ± 0.052 kcal/mol and 2.37 ± 0.024 kcal/mol, respectively.
As to “SAGGSAGGKPKMTFPITDIYPPPGGGNVFIRIQSDDKPREFPFPNLENLEIEKDPEDGTVKIKWSAGGSAGG [r6_806_TrROS]”, the “folding stability dG unfold” value in series [1] is -0.0766 ± 0.31 kcal/mol; in series [2], 0.129 ± 0.36 kcal/mol; in series [3] it was 0.307 ± 0.39 kcal/mol.
For “SAGGSAGGKSYVRLEVYRRNPETDEWEKIRTEVLETDAASGEEVRRRALERVPEDYLVKVELFPSAGGSAGG [r6_623_TrMRF]”, in that order: 2.62 ± 0.062 kcal/mol, 2.01 ± 0.046 kcal/mol and 2.872 ± 0.028 kcal/mol.
For “SAGGSAGGKTIEITIKLEDGKELKIKIDSPEELDKITSVELIGPGKIKITVNGKTIEITIKPKPSAGGSAGG [r6_206_TrROS_Hall]”, in that order: 3.2 ± 0.16 kcal/mol, 3.45 ± 0.14 kcal/mol and 2.77 ± 0.072 kcal/mol.
For the sequence “SAGGSAGGKVRVITVKPGETITVEGLPPGAVLITLPDGSVKEFPAGATIKVPPSAEIVVVEKEDSAGGSAGG [r6_866_TrROS_Hall]”, the “folding stability dG unfold” value in series [1] was 0.778 ± 0.1 kcal/mol; in series [2], 0.486 ± 0.022 kcal/mol; in series [3] it was 0.885 ± 0.04 kcal/mol.
As for “SAGGSAGGKYEIVEVEEKEVNGEKYLIFKVKNENGEELLITVSKEDAEKILASLPPGATVEILPSAGGSAGG [r6_111_TrROS_Hall]”, the “folding stability dG unfold” value amounted to 3.84 ± 0.25 kcal/mol in series [1], 3.49 ± 0.56 kcal/mol in series [2] and 3.76 ± 0.14 kcal/mol in series [3].
Consider “SAGGSAGGLEEELKLAKENPGEFEGVTVKLESVIEVTTTDPTTGKPTTKLVRVESEITFPPGLKSAGGSAGG [r6_560_JUSTAS]”, for which the “folding stability dG unfold” value in series [1] amounted to 0.834 ± 0.2 kcal/mol; in series [2], 0.2 ± 0.13 kcal/mol; in series [3] it was 1.05 ± 0.1 kcal/mol.
With “SAGGSAGGLPPGQSIEIFIFSMFPTPNGNLNLEMIQITIRIRPVVRKPDNGGEKYVPPDDPDLASAGGSAGG [r6_405_TrROS]”, the “folding stability dG unfold” value was 3.97 ± 0.16 kcal/mol in series [1], 2.87 ± 0.11 kcal/mol in series [2] and 4.36 ± 0.22 kcal/mol in series [3].
As to “SAGGSAGGLRVVKPEKVVEAIRKIRELVPKNYLVIVDSIEVREEGGKLYVDIPVLVLPVPPELLSAGGSAGG [r6_819_TrMRF]”, the “folding stability dG unfold” value came to 1.65 ± 0.16 kcal/mol in series [1], 1.54 ± 0.027 kcal/mol in series [2] and 1.79 ± 0.072 kcal/mol in series [3].
The corresponding values for “SAGGSAGGMEVVELTVDELRALLPPGAVLLVYNRKTRKLYEIPVEELEALLKPGDKVRVVVLPPSAGGSAGG [r6_893_TrROS_Hall]” are 4.17 ± 0.25 kcal/mol, 3.62 ± 0.17 kcal/mol and 4.39 ± 0.074 kcal/mol.
The corresponding values for “SAGGSAGGMFIALVTITLPNGEKITDLAFFESPEKIYVLNLKDGKWSEPKVEDIKVVPLEELLFSAGGSAGG [r6_558_TrMRF]” are 2.41 ± 0.18 kcal/mol, 1.92 ± 0.12 kcal/mol and 2.73 ± 0.069 kcal/mol.
For “SAGGSAGGMIIRITTKNGKTLEIKAKSLEEAKAAIAEKLGLSKENIKPEDITKVEIYSEEELKESAGGSAGG [r6_586_TrROS_Hall]”, in that order: 3.12 ± 0.16 kcal/mol, 2.95 ± 0.17 kcal/mol and 3.28 ± 0.15 kcal/mol.
With “SAGGSAGGMIKITITVPPGVSPEFVREKIAPLGVEVLSVEPLPDGTHRVTIEIPPEITKNPELLSAGGSAGG [r6_470_JUSTAS]”, the “folding stability dG unfold” value in series [1] stood at 1.42 ± 0.044 kcal/mol; in series [2] it was 1.68 ± 0.051 kcal/mol; in series [3], 1.18 ± 0.023 kcal/mol.
In the case of “SAGGSAGGMIREIEVKVSPEFPSVEEVVEELKAKGYEVKRIEEDPETDEVIVYVVKKVPEEEHHSAGGSAGG [r6_604_JUSTAS]”, the “folding stability dG unfold” value is 1.08 ± 0.12 kcal/mol in series [1], 1.05 ± 0.068 kcal/mol in series [2] and 1.04 ± 0.17 kcal/mol in series [3].
The corresponding values for “SAGGSAGGMIVTTTFLPGNLKVVNVTTTYETTDPSGTTTSTTTTSTTIEYIPPVPVDINNPLLISAGGSAGG [r6_920_JUSTAS]” are 1.41 ± 0.14 kcal/mol, 1.41 ± 0.071 kcal/mol and 1.24 ± 0.038 kcal/mol.
For “SAGGSAGGMIYADNPEEFKKVVKELLKKHPKNKPVFAVLTGSNSKYVIYLSGDKLEKVLAFPVPSAGGSAGG [r6_288_TrMRF]”, in that order: 1.38 ± 0.052 kcal/mol, 0.961 ± 0.028 kcal/mol and 1.62 ± 0.051 kcal/mol.
For “SAGGSAGGMKATFHPGPGRFPLGDKEYEVDLIYVTVTLPNGVPRVFVLTPDEVEELLPDLELEGSAGGSAGG [r6_561_TrMRF]”, in that order: 0.794 ± 0.098 kcal/mol, 0.338 ± 0.07 kcal/mol and 1.04 ± 0.071 kcal/mol.
In the case of “SAGGSAGGMKEGETRTITFWANVKPGDLEKIANHMMKFGWPIKKVDIKRHPENGMVRVSITIRKSAGGSAGG [r6_514_TrROS]”, the results for the “folding stability dG unfold” value in series [1], in series [2] and in series [3] were 2.43 ± 0.052 kcal/mol, 2.21 ± 0.025 kcal/mol and 2.56 ± 0.045 kcal/mol, respectively.
For “SAGGSAGGMKEVIEAALKDGSKEFYAPGFSPDKVYDVKITVYPGEGKVEIEVEGKRFTVSPEDLSAGGSAGG [r6_749_TrMRF]”, in that order: 1.11 ± 0.23 kcal/mol, 1.48 ± 0.14 kcal/mol and 0.765 ± 0.18 kcal/mol.
The corresponding values for “SAGGSAGGMKITKIESVEPNPENGMVSLEMKIENGASILIHYNPDNGKVTIMVFKPNEIEPIELSAGGSAGG [r6_796_TrROS]” are 1.76 ± 0.089 kcal/mol, 1.26 ± 0.092 kcal/mol and 1.91 ± 0.072 kcal/mol.
For “SAGGSAGGMKITVEEDPATNRLTITIEVDGHTVTIVYDKDNPNKITVTVSPNMTKDEILKALKSSAGGSAGG [r6_195_TrROS_Hall]”, in that order: 2.17 ± 0.095 kcal/mol, 1.67 ± 0.052 kcal/mol and 2.43 ± 0.034 kcal/mol.
Regarding “SAGGSAGGMKKYKMTITFKTPDGTPVKEKTIYFNSEEEAKKAAEEIKKKELEPDTPVTVSKEPDSAGGSAGG [r6_286_JUSTAS]”, the “folding stability dG unfold” value was found to be 0.898 ± 0.069 kcal/mol in series [1], 0.425 ± 0.05 kcal/mol in series [2] and 1.13 ± 0.071 kcal/mol in series [3].
For “SAGGSAGGMKLLKVVVERKDGSKRELEIPEELLVELGRPPTPEEIAKLLGIKPEDIVRVEIEDVSAGGSAGG [r6_166_TrMRF]”, in that order: 4.74 ± 0.2 kcal/mol, 3.65 ± 0.15 kcal/mol and 4.87 ± 0.21 kcal/mol.
The corresponding values for “SAGGSAGGMKTVEIEVTVKTPDGKEVKIKKARIEYDKETKTFHLYFENEETGEWYEVDEIKLKDSAGGSAGG [r6_329_TrROS_Hall]” are 2.71 ± 0.2 kcal/mol, 1.96 ± 0.085 kcal/mol and 2.69 ± 0.18 kcal/mol.
On to “SAGGSAGGMKVVVKFTVRPRDPDTDEAVPAELVLEFDSLEEALAAAEELAALPEGTEIEIEVLTSAGGSAGG [r6_999_TrMRF]”, for which the results for the “folding stability dG unfold” value in series [1], in series [2] and in series [3] were 1.96 ± 0.088 kcal/mol, 2.2 ± 0.058 kcal/mol and 1.76 ± 0.031 kcal/mol, respectively.
For “SAGGSAGGMKYTTTTETSVVEVRTDPKTGTTTRLERVTVTTVDSSGNVLSTTETLEERVDPVPASAGGSAGG [r6_181_JUSTAS]”, in that order: 2.15 ± 0.039 kcal/mol, 2.1 ± 0.059 kcal/mol and 2.163 ± 0.0081 kcal/mol.
With “SAGGSAGGMKYVVTVELPETGTTRTLTIPDNYTGEENVKKAVEEEAKKLGYSISKIEITKINDKSAGGSAGG [r6_718_JUSTAS]”, the “folding stability dG unfold” value in series [1] is 0.536 ± 0.12 kcal/mol; in series [2], 0.367 ± 0.086 kcal/mol; in series [3], 0.654 ± 0.14 kcal/mol.
Take “SAGGSAGGMLEIEFEKPLPNGETLKIKVFFDKDKPEALVEIENPSTNEKKFYNFTSIDEVIEKESAGGSAGG [r6_464_TrMRF]”: the “folding stability dG unfold” value stood at 1.49 ± 0.24 kcal/mol in series [1], 1.03 ± 0.048 kcal/mol in series [2] and 1.7 ± 0.2 kcal/mol in series [3].
The corresponding values for “SAGGSAGGMNIQILKVDPDNGTITLAIPVDNWIVAISIKIRPDPNNPGMFKLDIDIHWFPADDISAGGSAGG [r6_372_TrROS]” are 4.28 ± 0.091 kcal/mol, 3.77 ± 0.14 kcal/mol and 4.44 ± 0.11 kcal/mol.
With “SAGGSAGGMNPTVTPVEVDVGDKPLTVFLFGDGTALVLFPDGGLAGAPVGTPDDRPVNLAIIGPSAGGSAGG [r6_239_TrMRF]”, the “folding stability dG unfold” value in series [1] was determined as 0.927 ± 0.073 kcal/mol; in series [2], 0.887 ± 0.037 kcal/mol; in series [3], 0.955 ± 0.053 kcal/mol.
The corresponding values for “SAGGSAGGMPLLALSYPVLKDGKLYRVLFLYSPDGTFLGPFYVSADLTEDIPPDTVVLVHPDALSAGGSAGG [r6_33_TrMRF]” are 3.55 ± 0.1 kcal/mol, 3.24 ± 0.09 kcal/mol and 3.523 ± 0.03 kcal/mol.
The corresponding values for “SAGGSAGGMPPVSLPETPVTITDPATGKPRLVTVLAAAPDGTLTVRFPDGSEVTVAGEPLLELESAGGSAGG [r6_435_JUSTAS]” are 0.878 ± 0.051 kcal/mol, 0.446 ± 0.042 kcal/mol and 1.05 ± 0.019 kcal/mol.
In the case of “SAGGSAGGMPVEIEILTPDNLLPTFTIPDPEEAEKIKSVEVFGDRFIKITLGDKEIVIEVYPDNSAGGSAGG [r6_206_TrMRF]”, the “folding stability dG unfold” value turned out to be 1.01 ± 0.12 kcal/mol in series [1], 1.48 ± 0.061 kcal/mol in series [2] and 0.559 ± 0.063 kcal/mol in series [3].
For “SAGGSAGGMSPDAKPIGEKTDESPGPEKVTTTTLKSPDPSLTYTVTTTTVGSTTTTTTTAVPVLSAGGSAGG [r6_923_JUSTAS]”, in that order: 0.261 ± 0.1 kcal/mol, 0.439 ± 0.051 kcal/mol and 0.134 ± 0.4 kcal/mol.
For “SAGGSAGGMTFTFPPGARVRIAIYNKNGELIEEREIDEPGAKITIEKDEETGEWRIVSIELLEPSAGGSAGG [r6_523_TrROS_Hall]”, in that order: 3.45 ± 0.18 kcal/mol, 3.12 ± 0.084 kcal/mol and 3.76 ± 0.05 kcal/mol.
For “SAGGSAGGMTIEEKAEELEEELKKKYPDMEVKVEVDPEKGIVKITITDPKNPGKTTELTFPVEESAGGSAGG [r6_478_JUSTAS]”, in that order: 3.36 ± 0.15 kcal/mol, 4.2 ± 0.45 kcal/mol and 2.23 ± 0.19 kcal/mol.
